Target: T1, HCBD–GST (helical cargo-binding domain of mouse Myo6, residues 1052–1096) (Mus musculus (Mouse), UniProt Q64331)
T1 chain: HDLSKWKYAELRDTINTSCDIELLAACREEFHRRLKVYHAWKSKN
Experiment: GST pulldown, Coomassie-stained gel

B1: GIPC3 PDZ (93–181), MBP-tagged (protein)
chain: GETKEVEVTKTEDALGLTITDNGAGYAFIKRIKEGSIINRIEAVCVGDSIEAINDHSIVGCRHYEVAKMLRELPKSQPFTLRLVQPRRA
binding result: no binding

B2: GIPC3 PDZ-GH2 domains (93–297), MBP-tagged (protein)
chain: GETKEVEVTKTEDALGLTITDNGAGYAFIKRIKEGSIINRIEAVCVGDSIEAINDHSIVGCRHYEVAKMLRELPKSQPFTLRLVQPRRAFDMIGQRSRSSKCPVEAKVSSGRETLRLRSGGAATVEEAPSDVEAAAARRVDDLLESYMGIRDPELAAAVVETARSSAGAQAFARGLDAVLGEFAFPDEFVVEVWAAIGEAHDACG
binding result: binds
